Assay results published in article PMC8564508.

Tests used:
[1] = molecular target: LH1-RC complex of Rba. sphaeroides IL106 (wild type) (Rhodobacter sphaeroides f. sp. denitrificans strain IL106) (UniProt Q3J1A4); experiment: sucrose density gradient centrifugation; supernatant of chromatophores solubilised with 1.0% w/v DDM on a stepwise sucrose gradient (10-40% w/v), 20 mM Tris-HCl pH 8.0, 0.05% w/v DDM, 4 °C, 150,000 x g, 6 h; ratio from volumes and absorption of the dimeric and monomeric layers
[2] = molecular target: LH1-RC complex of the protein-U-deleted strain IL106-ΔU (Rhodobacter sphaeroides f. sp. denitrificans strain IL106) (UniProt Q3J1A4); experiment: as above

| ratio of dimeric to monomeric LH1-RC [1] | stoichiometry N [1] | ratio of dimeric to monomeric LH1-RC [2] | stoichiometry N [2] | Substance |
| --- | --- | --- | --- | --- |
| 0.44 | 2 |  |  | LH1-RC complex of Rba. sphaeroides IL106 (wild type) (from UniProt Q3J1A4 1-58; Q3J1A3 1-49; P0C0Y8 1-282; P0C0Y9 1-308; P0C0Y7 1-260; P13402 1-82) |
|  |  | 0.15 | 2 | LH1-RC complex of the protein-U-deleted strain IL106-ΔU (from UniProt Q3J1A4 1-58; Q3J1A3 1-49; P0C0Y8 1-282; P0C0Y9 1-308; P0C0Y7 1-260; P13402 1-82) |
